Laboratory results as given in PMC11094138, “The NTE domain of PTENα/β promotes cancer progression by interacting with WDR5 via its SSSRRSS motif” (Cell Death & Disease, 2024).

Columns and labels:
WDR5^22–334 [1] = biological target: T1, WDR5^22–334 (human, UniProt P61964 22-334); assay: ITC; competitive: PTENα-NTE^116–148 or PTENα-NTE^1–173 titrated into a 1:1 molar mixture of WDR5^22–334 and H3 1–15; 25 °C; 20 mM Tris-HCl pH 7.5, 150 mM NaCl; conditions: both partners purified
WDR5^22–334 [2] = biological target: T1, WDR5^22–334; assay: ITC; WDR5 (50 µM) in the cell, peptide or protein (750 µM) in the syringe, 20 injections; 25 °C; 20 mM Tris-HCl pH 7.5, 150 mM NaCl; single-site model; iTC-200; conditions: both partners purified

Kd against a 1:1 mixture of WDR5^22–334 and H3 1–15 (WDR5^22–334 [1])	Kd (WDR5^22–334 [2])	binding result (WDR5^22–334 [2])	Binder
32 ± 3 µM	3.8 µM		SSRRSSHYPAAVQSQAAAERGASATAKSRAISI (PTENα (PTEN-L), the N-terminally extended variant of human PTEN (576 residues); residues 116–148 of its N-terminal extension; also called synthetic PTENα-NTE^116–148 peptide; source: synthetic peptide) [PTENα-NTE^116–148 peptide]
		binds	GSARAEVHLRK (source: lyophilized peptide (Shanghai Apeptide or GL Biochem)) [MLL1 WIN motif MLL1^3762–3772]
		binds	GSRRAEVHLRK (source: lyophilized peptide (Shanghai Apeptide or GL Biochem)) [MLL1^3762–3772_A3764R]
